Measurements from patent US12679878B2, “CRF2 receptor agonists and their use in therapy” (SANOFI, priority 2020, dated 2026).
Starred links: 1 amine or outer side, 2 acyl side, 3 side chain; linkers in the order of their positions; H or OH if unused. Non-standard residues stand in square brackets, D forms with d. Groups on a side chain read outwards from the residue. No end group written: not given here. *: point of attachment. C18 diacid = O=C(O)CCCCCCCCCCCCCCCCC(=O)*; γGlu = O=C(O)[C@H](CCC(=O)[*:2])N[*:1]; AEEA = NCCOCCOCC(=O)O; Aib = CC(C)(N)C(=O)O

B1: peptide of SEQ ID NO: 104 (peptide)
peptide: IVLSLDVPIKLK([AEEA-AEEA-γGlu-C18 diacid])QILLKQERQK[Aib]QREQAETNKQILAQV-NH2
modifications: N-terminus assumed
SMILES: CC[C@H](C)[C@H](N)C(=O)N[C@H](C(=O)N[C@@H](CC(C)C)C(=O)N[C@@H](CO)C(=O)N[C@@H](CC(C)C)C(=O)N[C@@H](CC(=O)O)C(=O)N[C@H](C(=O)N1CCC[C@H]1C(=O)N[C@H](C(=O)N[C@@H](CCCCN)C(=O)N[C@@H](CC(C)C)C(=O)N[C@@H](CCCCNC(=O)COCCOCCNC(=O)COCCOCCNC(=O)CC[C@H](NC(=O)CCCCCCCCCCCCCCCCC(=O)O)C(=O)O)C(=O)N[C@@H](CCC(N)=O)C(=O)N[C@H](C(=O)N[C@@H](CC(C)C)C(=O)N[C@@H](CC(C)C)C(=O)N[C@@H](CCCCN)C(=O)N[C@@H](CCC(N)=O)C(=O)N[C@@H](CCC(=O)O)C(=O)N[C@@H](CCCNC(=N)N)C(=O)N[C@@H](CCC(N)=O)C(=O)N[C@@H](CCCCN)C(=O)NC(C)(C)C(=O)N[C@@H](CCC(N)=O)C(=O)N[C@@H](CCCNC(=N)N)C(=O)N[C@@H](CCC(=O)O)C(=O)N[C@@H](CCC(N)=O)C(=O)N[C@@H](C)C(=O)N[C@@H](CCC(=O)O)C(=O)N[C@H](C(=O)N[C@@H](CC(N)=O)C(=O)N[C@@H](CCCCN)C(=O)N[C@@H](CCC(N)=O)C(=O)N[C@H](C(=O)N[C@@H](CC(C)C)C(=O)N[C@@H](C)C(=O)N[C@@H](CCC(N)=O)C(=O)N[C@H](C(N)=O)C(C)C)[C@@H](C)CC)[C@@H](C)O)[C@@H](C)CC)[C@@H](C)CC)C(C)C)C(C)C
B2: peptide of SEQ ID NO: 105 (peptide)
peptide: IVLSLDVPIKLK([AEEA-AEEA-γGlu-C18 diacid])QILLEQERQK[Aib]QRQQAETNKQILAQV-NH2
modifications: N-terminus assumed
SMILES: CC[C@H](C)[C@H](N)C(=O)N[C@H](C(=O)N[C@@H](CC(C)C)C(=O)N[C@@H](CO)C(=O)N[C@@H](CC(C)C)C(=O)N[C@@H](CC(=O)O)C(=O)N[C@H](C(=O)N1CCC[C@H]1C(=O)N[C@H](C(=O)N[C@@H](CCCCN)C(=O)N[C@@H](CC(C)C)C(=O)N[C@@H](CCCCNC(=O)COCCOCCNC(=O)COCCOCCNC(=O)CC[C@H](NC(=O)CCCCCCCCCCCCCCCCC(=O)O)C(=O)O)C(=O)N[C@@H](CCC(N)=O)C(=O)N[C@H](C(=O)N[C@@H](CC(C)C)C(=O)N[C@@H](CC(C)C)C(=O)N[C@@H](CCC(=O)O)C(=O)N[C@@H](CCC(N)=O)C(=O)N[C@@H](CCC(=O)O)C(=O)N[C@@H](CCCNC(=N)N)C(=O)N[C@@H](CCC(N)=O)C(=O)N[C@@H](CCCCN)C(=O)NC(C)(C)C(=O)N[C@@H](CCC(N)=O)C(=O)N[C@@H](CCCNC(=N)N)C(=O)N[C@@H](CCC(N)=O)C(=O)N[C@@H](CCC(N)=O)C(=O)N[C@@H](C)C(=O)N[C@@H](CCC(=O)O)C(=O)N[C@H](C(=O)N[C@@H](CC(N)=O)C(=O)N[C@@H](CCCCN)C(=O)N[C@@H](CCC(N)=O)C(=O)N[C@H](C(=O)N[C@@H](CC(C)C)C(=O)N[C@@H](C)C(=O)N[C@@H](CCC(N)=O)C(=O)N[C@H](C(N)=O)C(C)C)[C@@H](C)CC)[C@@H](C)O)[C@@H](C)CC)[C@@H](C)CC)C(C)C)C(C)C
B3: peptide of SEQ ID NO: 103 (peptide)
peptide: IVLSLDVPIKLK([AEEA-AEEA-γGlu-C18 diacid])QILLEQERQK[Aib]QREQAETNKQILAQV-NH2
modifications: N-terminus assumed
SMILES: CC[C@H](C)[C@H](N)C(=O)N[C@H](C(=O)N[C@@H](CC(C)C)C(=O)N[C@@H](CO)C(=O)N[C@@H](CC(C)C)C(=O)N[C@@H](CC(=O)O)C(=O)N[C@H](C(=O)N1CCC[C@H]1C(=O)N[C@H](C(=O)N[C@@H](CCCCN)C(=O)N[C@@H](CC(C)C)C(=O)N[C@@H](CCCCNC(=O)COCCOCCNC(=O)COCCOCCNC(=O)CC[C@H](NC(=O)CCCCCCCCCCCCCCCCC(=O)O)C(=O)O)C(=O)N[C@@H](CCC(N)=O)C(=O)N[C@H](C(=O)N[C@@H](CC(C)C)C(=O)N[C@@H](CC(C)C)C(=O)N[C@@H](CCC(=O)O)C(=O)N[C@@H](CCC(N)=O)C(=O)N[C@@H](CCC(=O)O)C(=O)N[C@@H](CCCNC(=N)N)C(=O)N[C@@H](CCC(N)=O)C(=O)N[C@@H](CCCCN)C(=O)NC(C)(C)C(=O)N[C@@H](CCC(N)=O)C(=O)N[C@@H](CCCNC(=N)N)C(=O)N[C@@H](CCC(=O)O)C(=O)N[C@@H](CCC(N)=O)C(=O)N[C@@H](C)C(=O)N[C@@H](CCC(=O)O)C(=O)N[C@H](C(=O)N[C@@H](CC(N)=O)C(=O)N[C@@H](CCCCN)C(=O)N[C@@H](CCC(N)=O)C(=O)N[C@H](C(=O)N[C@@H](CC(C)C)C(=O)N[C@@H](C)C(=O)N[C@@H](CCC(N)=O)C(=O)N[C@H](C(N)=O)C(C)C)[C@@H](C)CC)[C@@H](C)O)[C@@H](C)CC)[C@@H](C)CC)C(C)C)C(C)C
B4: peptide of SEQ ID NO: 106 (peptide)
peptide: IVLSLDVPIKLK([AEEA-AEEA-γGlu-C18 diacid])QILLEQERQK[Aib]QREQAETNKQILERV-NH2
modifications: N-terminus assumed
SMILES: CC[C@H](C)[C@H](N)C(=O)N[C@H](C(=O)N[C@@H](CC(C)C)C(=O)N[C@@H](CO)C(=O)N[C@@H](CC(C)C)C(=O)N[C@@H](CC(=O)O)C(=O)N[C@H](C(=O)N1CCC[C@H]1C(=O)N[C@H](C(=O)N[C@@H](CCCCN)C(=O)N[C@@H](CC(C)C)C(=O)N[C@@H](CCCCNC(=O)COCCOCCNC(=O)COCCOCCNC(=O)CC[C@H](NC(=O)CCCCCCCCCCCCCCCCC(=O)O)C(=O)O)C(=O)N[C@@H](CCC(N)=O)C(=O)N[C@H](C(=O)N[C@@H](CC(C)C)C(=O)N[C@@H](CC(C)C)C(=O)N[C@@H](CCC(=O)O)C(=O)N[C@@H](CCC(N)=O)C(=O)N[C@@H](CCC(=O)O)C(=O)N[C@@H](CCCNC(=N)N)C(=O)N[C@@H](CCC(N)=O)C(=O)N[C@@H](CCCCN)C(=O)NC(C)(C)C(=O)N[C@@H](CCC(N)=O)C(=O)N[C@@H](CCCNC(=N)N)C(=O)N[C@@H](CCC(=O)O)C(=O)N[C@@H](CCC(N)=O)C(=O)N[C@@H](C)C(=O)N[C@@H](CCC(=O)O)C(=O)N[C@H](C(=O)N[C@@H](CC(N)=O)C(=O)N[C@@H](CCCCN)C(=O)N[C@@H](CCC(N)=O)C(=O)N[C@H](C(=O)N[C@@H](CC(C)C)C(=O)N[C@@H](CCC(=O)O)C(=O)N[C@@H](CCCNC(=N)N)C(=O)N[C@H](C(N)=O)C(C)C)[C@@H](C)CC)[C@@H](C)O)[C@@H](C)CC)[C@@H](C)CC)C(C)C)C(C)C
B5: peptide of SEQ ID NO: 102 (peptide)
peptide: IVLSLD[dV]PIKLK([AEEA-AEEA-γGlu-C18 diacid])QILLKQERQKKQREQAETNKQILAQV-NH2
modifications: N-terminus assumed
SMILES: CC[C@H](C)[C@H](N)C(=O)N[C@H](C(=O)N[C@@H](CC(C)C)C(=O)N[C@@H](CO)C(=O)N[C@@H](CC(C)C)C(=O)N[C@@H](CC(=O)O)C(=O)N[C@@H](C(=O)N1CCC[C@H]1C(=O)N[C@H](C(=O)N[C@@H](CCCCN)C(=O)N[C@@H](CC(C)C)C(=O)N[C@@H](CCCCNC(=O)COCCOCCNC(=O)COCCOCCNC(=O)CC[C@H](NC(=O)CCCCCCCCCCCCCCCCC(=O)O)C(=O)O)C(=O)N[C@@H](CCC(N)=O)C(=O)N[C@H](C(=O)N[C@@H](CC(C)C)C(=O)N[C@@H](CC(C)C)C(=O)N[C@@H](CCCCN)C(=O)N[C@@H](CCC(N)=O)C(=O)N[C@@H](CCC(=O)O)C(=O)N[C@@H](CCCNC(=N)N)C(=O)N[C@@H](CCC(N)=O)C(=O)N[C@@H](CCCCN)C(=O)N[C@@H](CCCCN)C(=O)N[C@@H](CCC(N)=O)C(=O)N[C@@H](CCCNC(=N)N)C(=O)N[C@@H](CCC(=O)O)C(=O)N[C@@H](CCC(N)=O)C(=O)N[C@@H](C)C(=O)N[C@@H](CCC(=O)O)C(=O)N[C@H](C(=O)N[C@@H](CC(N)=O)C(=O)N[C@@H](CCCCN)C(=O)N[C@@H](CCC(N)=O)C(=O)N[C@H](C(=O)N[C@@H](CC(C)C)C(=O)N[C@@H](C)C(=O)N[C@@H](CCC(N)=O)C(=O)N[C@H](C(N)=O)C(C)C)[C@@H](C)CC)[C@@H](C)O)[C@@H](C)CC)[C@@H](C)CC)C(C)C)C(C)C
B6: peptide of SEQ ID NO: 108 (peptide)
peptide: IVLSLDVPIKLK([AEEA-AEEA-γGlu-C18 diacid])QILLKQERQK[Aib]QRQKAETNKQILAQV-NH2
modifications: N-terminus assumed
SMILES: CC[C@H](C)[C@H](N)C(=O)N[C@H](C(=O)N[C@@H](CC(C)C)C(=O)N[C@@H](CO)C(=O)N[C@@H](CC(C)C)C(=O)N[C@@H](CC(=O)O)C(=O)N[C@H](C(=O)N1CCC[C@H]1C(=O)N[C@H](C(=O)N[C@@H](CCCCN)C(=O)N[C@@H](CC(C)C)C(=O)N[C@@H](CCCCNC(=O)COCCOCCNC(=O)COCCOCCNC(=O)CC[C@H](NC(=O)CCCCCCCCCCCCCCCCC(=O)O)C(=O)O)C(=O)N[C@@H](CCC(N)=O)C(=O)N[C@H](C(=O)N[C@@H](CC(C)C)C(=O)N[C@@H](CC(C)C)C(=O)N[C@@H](CCCCN)C(=O)N[C@@H](CCC(N)=O)C(=O)N[C@@H](CCC(=O)O)C(=O)N[C@@H](CCCNC(=N)N)C(=O)N[C@@H](CCC(N)=O)C(=O)N[C@@H](CCCCN)C(=O)NC(C)(C)C(=O)N[C@@H](CCC(N)=O)C(=O)N[C@@H](CCCNC(=N)N)C(=O)N[C@@H](CCC(N)=O)C(=O)N[C@@H](CCCCN)C(=O)N[C@@H](C)C(=O)N[C@@H](CCC(=O)O)C(=O)N[C@H](C(=O)N[C@@H](CC(N)=O)C(=O)N[C@@H](CCCCN)C(=O)N[C@@H](CCC(N)=O)C(=O)N[C@H](C(=O)N[C@@H](CC(C)C)C(=O)N[C@@H](C)C(=O)N[C@@H](CCC(N)=O)C(=O)N[C@H](C(N)=O)C(C)C)[C@@H](C)CC)[C@@H](C)O)[C@@H](C)CC)[C@@H](C)CC)C(C)C)C(C)C

Biological target: T1, CRF1R receptor (anti-target) (UniProt P34998 24-415, limits assumed)
T1 sequence (looked up): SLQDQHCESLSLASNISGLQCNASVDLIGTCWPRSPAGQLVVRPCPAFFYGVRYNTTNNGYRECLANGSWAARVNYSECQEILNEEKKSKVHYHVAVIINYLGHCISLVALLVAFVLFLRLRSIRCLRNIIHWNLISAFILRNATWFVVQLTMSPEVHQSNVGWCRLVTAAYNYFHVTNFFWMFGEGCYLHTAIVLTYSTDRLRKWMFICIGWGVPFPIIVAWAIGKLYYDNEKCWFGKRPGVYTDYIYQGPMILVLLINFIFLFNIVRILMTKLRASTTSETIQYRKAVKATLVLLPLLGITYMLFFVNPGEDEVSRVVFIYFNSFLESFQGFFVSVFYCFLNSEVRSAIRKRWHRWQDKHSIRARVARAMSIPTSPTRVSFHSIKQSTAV
Assay: cell-based or functional assay

Row | Binder | EC50 [nM] 0% HSA (cAMP, HTRF) [nM] | Emax (%) (100% = Sauvagine at 100 nM)
1 | B1 | > 100 | 3.7
2 | B2 | > 100 | 15.4
3 | B3 | > 100 | 14
4 | B4 | > 100 | 5.1
5 | B5 | > 100 | 9
6 | B6 | > 100 | -2
